Data published in paper PMC11879458.

How the values were obtained:
Experiment in all cases: EMSA
ADR-2;ADBP-1 = ADR-2;ADBP-1 (Caenorhabditis elegans;Caenorhabditis …, UniProt Q22618;G5EDW1 1-495;1-217, |)
[1] = molecular target: ADR-2 (ΔdsRBD);ADBP-1 (Δ1-66 aa) (Caenorhabditis elegans;Caenorhabditis …, UniProt Q22618;G5EDW1 1-35+106-495;67-217, internal_change|del1-66)
ADR-2 = ADR-2 (Caenorhabditis elegans, UniProt Q22618 1-495)

B1: FAM-dsRNA 21 bp (dsRNA)
RNA 1: AAGGAUUACUGUAGUUUUCGC
RNA 2: GCGAAAACUACAGUAAUCCUU
B1: binds (ADR-2;ADBP-1); no binding [1]; binds (ADR-2).
